Data from patent US20130157959.

Experiments:
[1] = target: in vitro translated 35S-labelled p53 (wild-type), P04637
[2] = target: in vitro translated 35S-labelled mutant p53 K24R, P04637

B1: GST-Hades Ring protein (RP) (protein)
chain: RLKQMQEEFQEHEAQLLSRAKPEDRESLKSACVVCLSSFKSCVFLECGHVCSCTECYRALPEPKKCPICRQAITRVIPLYN
[1]
  in vitro ubiquitination of 35S-labeled p53 with E1 and several E2 enzymes, autoradiography: The 35S-labeled p53 was polyubiquitinated in an Ubc5a or Ubc5c-dependent manner
  in vitro ubiquitination of 35S-labelled p53, SDS-PAGE and autoradiography: WT p53 was ubiquitinated by Hades
  in vitro ubiquitination of p53 with E1, E2 (UbcH5c) and His-ubiquitin, anti-p53 immunoblot: The p53 ubiquitination was only induce by Hades
Mutant p53 6CKR, P04637
  in vitro ubiquitination of p53 lysine mutants, immunoblot: Hades was still able to ubiquitinate a form of p53 in which all six lysines was mutated (6CKR)
[2]
  in vitro ubiquitination of 35S-labelled p53 K24R, SDS-PAGE and autoradiography: the in vitro translated p53 K24R was not ubiquitinated by Hades
